Earlier results in paper PMC6953019.

Target: TβRII (Homo sapiens) (UniProt P37173)
Assay: SPR

TβRII (Homo sapiens), sequence (P37173 23-166): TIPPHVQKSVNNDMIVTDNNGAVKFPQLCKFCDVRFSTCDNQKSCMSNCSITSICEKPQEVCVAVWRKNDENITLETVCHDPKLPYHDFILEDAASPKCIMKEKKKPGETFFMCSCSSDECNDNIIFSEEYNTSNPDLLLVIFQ
TGFβ2, sequence (P61812 303-414): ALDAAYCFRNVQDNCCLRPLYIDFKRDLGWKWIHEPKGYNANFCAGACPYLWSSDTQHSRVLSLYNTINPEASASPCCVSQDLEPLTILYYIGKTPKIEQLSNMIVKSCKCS

Substance: TGFβ2 (from UniProt P61812)
- Kd: 5 nM
